The target of this experiment is acetylcholine receptor (Homo sapiens, UniProt P02708). Description: SPR binding affinity (RU) of optimized 5mer/6mer/7mer peptides, Examples 6-7. As to conditions: SPR, peptides at 10 μM; 6mer-2 Bottom sequence. An outline of the steps: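 Single-concentration screen: 10 μM peptide, SPR detection, binding expressed as RU.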
On the technique in general: In SPR one partner is held on a chip, and binding of the other changes the refractive index at the surface.

The source of these data is patent publication US20250011363A1, “OPTIMIZED SHORTENED PEPTIDE THAT BINDS TO ACETYLCHOLINE RECEPTOR, AND USE THEREOF” (SKINMED CO., LTD., priority 2021, published 2025).

acetylcholine receptor, sequence (P02708 21-457): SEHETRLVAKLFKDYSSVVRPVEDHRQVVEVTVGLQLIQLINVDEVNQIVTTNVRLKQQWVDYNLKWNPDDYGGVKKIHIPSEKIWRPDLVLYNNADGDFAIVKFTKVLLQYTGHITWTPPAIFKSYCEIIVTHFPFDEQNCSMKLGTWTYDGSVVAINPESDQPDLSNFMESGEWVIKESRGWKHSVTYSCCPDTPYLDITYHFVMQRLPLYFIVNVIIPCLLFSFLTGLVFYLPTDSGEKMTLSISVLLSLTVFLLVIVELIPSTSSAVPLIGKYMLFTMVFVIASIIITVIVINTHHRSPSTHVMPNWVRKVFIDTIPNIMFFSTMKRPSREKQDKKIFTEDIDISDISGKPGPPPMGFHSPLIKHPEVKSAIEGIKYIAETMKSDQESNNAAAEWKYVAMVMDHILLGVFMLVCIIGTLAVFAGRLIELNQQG

As for 6mer-2-999 (RATIKR), the Binding affinity is listed as 31 Ru.
Under 6mer-2-1000 (KCHDKK) stands 41 Ru; under 6mer-2-1001 (RKKFKK), 37 Ru.
For the substance 6mer-2-1002 (RCNDKR), the Binding affinity came out at 42 Ru.
Under 6mer-2-1003 (KPEWKR) stands 42 Ru; under 6mer-2-1004 (RDTHKR), 38 Ru; under 6mer-2-1005 (RFKARR), 23 Ru.
For the substance 6mer-2-1006 (RATMRR), the Binding affinity is 30 Ru.
As for 6mer-2-1007 (RHTNKK), the figure is 42 Ru; as for 6mer-2-1008 (RAWKKR), 38 Ru.
In the case of 6mer-2-1009 (KINPRK), the Binding affinity came out at 34 Ru.
As for 6mer-2-1010 (RANHKK), the figure is 36 Ru; as for 6mer-2-1011 (RAEFRR), 22 Ru; as for 6mer-2-1012 (KASAKK), 30 Ru.
As for 6mer-2-1013 (KPPDKR), the figure is 23 Ru; as for 6mer-2-1014 (RPPMRR), 34 Ru; as for 6mer-2-1015 (RDEMKR), 29 Ru.
Under 6mer-2-1016 (RNEEKR) stands 41 Ru; under 6mer-2-1017 (RAPVRR), 40 Ru; under 6mer-2-1018 (RPTKKK), 24 Ru.
Consider 6mer-2-1019 (RNTWKK), for which the Binding affinity worked out at 23 Ru.
As for 6mer-2-1020 (KHDKKR), the figure is 21 Ru; as for 6mer-2-1021 (RYTPKR), 39 Ru; as for 6mer-2-1022 (KCNPRR), 22 Ru.
Under 6mer-2-1023 (KAEFKR) stands 26 Ru.
Under 6mer-2-1024 (RFHNKR) stands 37 Ru; under 6mer-2-1025 (RCSHRR), 39 Ru.
6mer-2-1026 (KENHRK): the Binding affinity came to 33 Ru.
As for 6mer-2-1027 (KTPVKK), the figure is 32 Ru; as for 6mer-2-1028 (KPEHRR), 41 Ru.
Under 6mer-2-1029 (KEEFKK) stands 40 Ru.
Under 6mer-2-1030 (RAPFKK) stands 28 Ru; under 6mer-2-1031 (RAWERK), 33 Ru.
As to 6mer-2-1032 (KETVKR), the Binding affinity worked out at 31 Ru.
As for 6mer-2-1033 (KMDEKK), the figure is 28 Ru; as for 6mer-2-1034 (KHSWRR), 38 Ru.
On to 6mer-2-1035 (RPPVKK), for which the Binding affinity turned out to be 39 Ru.
Under 6mer-2-1036 (KAKNKR) stands 25 Ru.
As for 6mer-2-1037 (KIHWKK), the Binding affinity is given as 26 Ru.
Under 6mer-2-1038 (KHWERK) stands 33 Ru.
As for 6mer-2-1039 (RNHFRK), the figure is 26 Ru.
Under 6mer-2-1040 (KYAWRK) stands 36 Ru; under 6mer-2-1041 (RACDKR), 22 Ru.
Turning to 6mer-2-1042 (KKMFRK), the Binding affinity is reported as 36 Ru.
As for 6mer-2-1043 (RDKGKK), the figure is 40 Ru; as for 6mer-2-1044 (KHTDKK), 41 Ru.
As for 6mer-2-1045 (RHAHRR), the figure is 41 Ru; as for 6mer-2-1046 (RNSEKR), 39 Ru; as for 6mer-2-1047 (RHDDKR), 28 Ru.
Under 6mer-2-1048 (RIHNRK) stands 22 Ru; under 6mer-2-1049 (KMSPRR), 26 Ru.
For 6mer-2-1050 (KPPPRK), the Binding affinity is given as 26 Ru.
As for 6mer-2-1051 (RKHMRR), the figure is 24 Ru.
